Measured values reported in IntAct's records for PubMed 16282588.

These substances were tested against tdg_human TDG (UniProt Q13569).
Sequence of tdg_human TDG (Q13569 whole entry): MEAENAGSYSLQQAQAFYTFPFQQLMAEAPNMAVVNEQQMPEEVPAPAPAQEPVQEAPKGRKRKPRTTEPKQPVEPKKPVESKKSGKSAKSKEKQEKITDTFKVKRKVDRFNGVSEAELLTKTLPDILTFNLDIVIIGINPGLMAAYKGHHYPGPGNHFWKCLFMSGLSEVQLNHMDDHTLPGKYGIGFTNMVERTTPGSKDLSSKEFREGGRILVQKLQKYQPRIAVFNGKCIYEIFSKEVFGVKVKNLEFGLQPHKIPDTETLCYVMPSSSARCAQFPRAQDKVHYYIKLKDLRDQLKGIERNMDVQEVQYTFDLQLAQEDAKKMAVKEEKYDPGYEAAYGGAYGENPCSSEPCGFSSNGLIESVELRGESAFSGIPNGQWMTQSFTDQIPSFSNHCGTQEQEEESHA

Sequence of Nuclear receptor coactivator 1 (Homo sapiens), Q15788-2 Y991F (Q15788 other isoform, or with tags, fused parts or gaps Y991F): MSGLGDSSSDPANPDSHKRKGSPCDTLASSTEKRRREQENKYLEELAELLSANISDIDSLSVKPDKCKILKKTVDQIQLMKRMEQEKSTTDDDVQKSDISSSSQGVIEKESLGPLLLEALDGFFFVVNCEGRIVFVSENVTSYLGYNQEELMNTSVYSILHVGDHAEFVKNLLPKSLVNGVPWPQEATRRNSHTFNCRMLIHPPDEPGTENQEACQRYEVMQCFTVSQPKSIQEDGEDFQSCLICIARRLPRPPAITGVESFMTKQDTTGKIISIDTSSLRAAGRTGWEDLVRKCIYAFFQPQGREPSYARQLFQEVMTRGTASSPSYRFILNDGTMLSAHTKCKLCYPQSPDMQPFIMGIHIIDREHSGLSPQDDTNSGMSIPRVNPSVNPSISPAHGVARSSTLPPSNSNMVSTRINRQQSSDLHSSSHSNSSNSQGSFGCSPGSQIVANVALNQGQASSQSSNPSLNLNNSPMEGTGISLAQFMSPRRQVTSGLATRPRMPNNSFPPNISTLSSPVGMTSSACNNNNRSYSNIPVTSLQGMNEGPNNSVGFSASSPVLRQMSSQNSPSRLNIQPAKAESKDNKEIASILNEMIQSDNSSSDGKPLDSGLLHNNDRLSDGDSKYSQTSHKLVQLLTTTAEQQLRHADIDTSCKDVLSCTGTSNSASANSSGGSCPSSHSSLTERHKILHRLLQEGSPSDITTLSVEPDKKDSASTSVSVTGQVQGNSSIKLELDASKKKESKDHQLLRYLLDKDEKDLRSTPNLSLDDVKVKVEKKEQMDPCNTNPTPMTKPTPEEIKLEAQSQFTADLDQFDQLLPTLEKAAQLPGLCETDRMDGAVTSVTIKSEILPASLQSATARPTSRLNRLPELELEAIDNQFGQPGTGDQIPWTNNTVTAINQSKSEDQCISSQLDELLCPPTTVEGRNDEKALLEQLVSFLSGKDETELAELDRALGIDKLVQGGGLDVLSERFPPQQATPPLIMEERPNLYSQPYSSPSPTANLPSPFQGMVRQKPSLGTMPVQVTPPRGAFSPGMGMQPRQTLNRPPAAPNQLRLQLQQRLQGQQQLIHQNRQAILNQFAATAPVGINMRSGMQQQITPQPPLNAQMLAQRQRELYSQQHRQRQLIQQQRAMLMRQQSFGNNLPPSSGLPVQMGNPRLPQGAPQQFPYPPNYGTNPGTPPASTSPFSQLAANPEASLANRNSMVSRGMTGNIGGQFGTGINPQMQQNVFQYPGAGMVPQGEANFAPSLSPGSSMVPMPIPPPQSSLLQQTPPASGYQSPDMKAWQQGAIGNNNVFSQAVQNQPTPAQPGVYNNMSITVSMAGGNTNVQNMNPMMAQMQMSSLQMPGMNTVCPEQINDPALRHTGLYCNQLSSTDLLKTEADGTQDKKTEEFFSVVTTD
Sequence of Nuclear receptor coactivator 1 (Homo sapiens), Q15788-2 Y991F;Y1169F (Q15788 other isoform, or with tags, fused parts or gaps Y991F;Y1169F): as the sequence (Q15788 other isoform, or with tags, fused parts or gaps Y991F) above
Sequence of Nuclear receptor coactivator 1 (Homo sapiens), Q15788-2 Y1169F (Q15788 other isoform, or with tags, fused parts or gaps Y1169F): as the sequence (Q15788 other isoform, or with tags, fused parts or gaps Y991F) above

Row | Substance | effect of a mutation on the interaction
1 | Nuclear receptor coactivator 1 (Homo sapiens), Q15788-2 Y1169F | disrupting interaction strength
2 | Nuclear receptor coactivator 1 (Homo sapiens), Q15788-2 Y991F | decreasing interaction strength
3 | Nuclear receptor coactivator 1 (Homo sapiens), Q15788-2 Y991F;Y1169F | disrupting interaction strength

Each substance was assayed against tdg_mouse Tdg (UniProt P56581).
Sequence of tdg_mouse Tdg (P56581 whole entry): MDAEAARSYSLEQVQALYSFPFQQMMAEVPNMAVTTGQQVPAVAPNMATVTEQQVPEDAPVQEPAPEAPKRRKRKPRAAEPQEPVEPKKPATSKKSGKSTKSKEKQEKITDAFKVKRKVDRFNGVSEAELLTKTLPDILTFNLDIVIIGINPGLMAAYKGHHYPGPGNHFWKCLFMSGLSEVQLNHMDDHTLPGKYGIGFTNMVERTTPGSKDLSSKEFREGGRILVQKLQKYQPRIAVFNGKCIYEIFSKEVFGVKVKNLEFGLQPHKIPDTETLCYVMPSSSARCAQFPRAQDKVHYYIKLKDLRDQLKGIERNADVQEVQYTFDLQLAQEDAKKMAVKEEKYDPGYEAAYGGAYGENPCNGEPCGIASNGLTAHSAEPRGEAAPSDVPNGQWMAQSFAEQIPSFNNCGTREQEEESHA

Row | Substance | effect of a mutation on the interaction
4 | Nuclear receptor coactivator 1 (Homo sapiens), Q15788 Y991F | decreasing interaction strength
5 | Nuclear receptor coactivator 1 (Homo sapiens), Q15788 Y1169F | decreasing interaction strength
6 | Nuclear receptor coactivator 1 (Homo sapiens), Q15788 Y991F;Y1169F | decreasing interaction strength

Biological target: tdg_human TDG (UniProt Q13569)
Remark: another data set of the same source

Row | Substance | effect of a mutation on the interaction
7 | Nuclear receptor coactivator 1 (Homo sapiens), Q15788 Y991F | decreasing interaction strength
8 | Nuclear receptor coactivator 1 (Homo sapiens), Q15788 Y1169F | decreasing interaction strength
9 | Nuclear receptor coactivator 1 (Homo sapiens), Q15788 Y991F;Y1169F | decreasing interaction strength
